Measurements taken from US7268212B2, “Ligand of G protein-coupled receptor protein and DNA thereof” (Takeda Pharmaceutical Company Limited, priority 2001, dated 2007).
Non-standard residues stand in square brackets, D forms with d. Residues, ends and D or L forms follow the SMILES beside them. No end group written: not given here. Trp(6-Br) = N[C@@H](Cc1c[nH]c2cc(Br)ccc12)C(=O)O; dTrp(6-Br) = N[C@H](Cc1c[nH]c2cc(Br)ccc12)C(=O)O

T1: bovine GPR7 (Bos taurus, UniProt Q8MJV3)
T1 construct: expressed in transfected cells; host or cells: CHO cells
T1 sequence (Q8MJV3 1-331): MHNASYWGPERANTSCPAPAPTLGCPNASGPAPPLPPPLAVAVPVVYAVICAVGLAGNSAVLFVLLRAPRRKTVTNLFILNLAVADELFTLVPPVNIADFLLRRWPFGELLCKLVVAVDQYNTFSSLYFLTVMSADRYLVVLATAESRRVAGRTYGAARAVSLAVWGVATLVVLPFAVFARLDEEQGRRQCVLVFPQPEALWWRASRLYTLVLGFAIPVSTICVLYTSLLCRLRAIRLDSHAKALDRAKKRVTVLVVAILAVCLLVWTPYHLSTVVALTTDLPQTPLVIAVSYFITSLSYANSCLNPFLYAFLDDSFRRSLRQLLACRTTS

T2: GPR7 (Homo sapiens, UniProt P48145)
T2 sequence (P48145 1-328): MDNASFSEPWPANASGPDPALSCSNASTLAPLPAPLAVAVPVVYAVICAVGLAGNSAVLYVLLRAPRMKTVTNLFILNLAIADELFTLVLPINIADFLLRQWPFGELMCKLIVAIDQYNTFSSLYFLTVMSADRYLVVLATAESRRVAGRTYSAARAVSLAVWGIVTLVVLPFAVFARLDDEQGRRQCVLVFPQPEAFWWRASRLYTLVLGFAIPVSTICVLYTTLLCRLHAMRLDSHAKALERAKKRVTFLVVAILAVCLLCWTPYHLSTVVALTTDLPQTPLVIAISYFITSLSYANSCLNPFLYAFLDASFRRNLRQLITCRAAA

T3: human GPR7 (human)
T3 chain: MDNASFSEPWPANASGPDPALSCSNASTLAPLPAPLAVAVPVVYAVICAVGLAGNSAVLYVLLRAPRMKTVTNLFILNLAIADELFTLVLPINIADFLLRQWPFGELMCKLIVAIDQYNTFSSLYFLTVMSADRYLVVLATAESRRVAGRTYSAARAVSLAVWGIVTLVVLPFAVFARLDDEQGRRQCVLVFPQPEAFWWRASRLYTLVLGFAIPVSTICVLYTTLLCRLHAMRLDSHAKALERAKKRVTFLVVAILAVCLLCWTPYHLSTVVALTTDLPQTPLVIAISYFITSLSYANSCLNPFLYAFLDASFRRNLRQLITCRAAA

B1: DTrp(6Br)1-human GPR7L(29) (peptide)
chain: WYKPAAGHSSYSVGRAAGLLSGLRRSPYA
modifications: not fully specified (residue 1); printed as D-Trp(6Br)-Tyr-Lys-Pro-Ala-Ala-Gly-His-Ser-Ser-Tyr-Ser-Val-Gly-Arg-Ala-Ala-Gly-Leu-Leu-Ser-Gly-Leu-Arg-Arg-Ser-Pro-Tyr-Ala

Molecular target: T1, bovine GPR7
Assay: Intracellular cAMP production suppression activity on bovine GPR7-expressed CHO cells
Format: cell-based
Conditions: forskolin-promoted cAMP production; receptor-expressed CHO cells; read-out: IC50 (nM) bovine GPR7, cAMP production inhibition
Method: (§1) The intracellular cAMP production suppression activity of peptides associated with various GPR7 ligands on CHO cells, in which human GPR7, bovine GPR8, human GPR8, human GPR8, bovine GPR8 and rat GPR7 were expressed, was examined. […] An assay buffer was prepared by adding 20 mM HEPES, pH7.4, 0.1% bovine serum albumin and 0.2 mM 3-isobutyl-1-methylxanthine (Sigma) to Hanks' Balanced Salt Solution (Gibco BRL). The plate incubated overnight was first washed twice with 150 μl of the assay buffer, and then exchanged with 150 μl of the assay buffer, followed by incubation for 30 minutes at 37° C. in 100% air. By adding 4 μM forskolin to the assay buffer, a buffer for sample dilution was prepared and the stock solution (10^−2 M of 10^−3 M) was diluted with the buffer thus obtained to prepare sample solutions in final concentrations of 10^−6 M, 10^−7 M, 10^−8 M, 10^−9 M and 10^−10 M. The plate incubated with the assay buffer for 30 minutes was taken out. After washing twice with the assay buffer, 50 μl of the assay buffer and then 50 μl of the sample solution were added thereto. Each sample was assayed in triplet. […] A difference between the maximum cAMP level and the cAMP level when each sample was added was calculated and the percentage of cAMP production level promoted by forskolin was worked out, which was made the cAMP production inhibition rate.

With “WYKPAAGSHHYSVGRAAGLLSSFHRFPST [Trp1-rat GPR7L(29)]” the IC50 was 1.2 nM.

Molecular target: T2, GPR7
Assay: not given
Conditions: reported by O'Dowd, B. F. et al.; cited from earlier work

In the case of β-endorphin, the “inhibition of [3H] bremazocine binding to the membrane fraction of GPR7” value is given as “inhibited”.

Molecular target: T3, human GPR7
Assay: competition, radioligand
Conditions: not given

Going from WYKPAAGHSSYSVGRAAGLLSGL [Trp1-human GPR7L(23)] to WYKPTAGQGYYSVGRAAGLLSGFHRSPYA [Trp1-bovine GPR7L(29)], the IC50 falls from 1.6 nM to 0.31 nM (5.2-fold).

First: [dTrp(6-Br)]YKPTAGQGYYSVGRAAGLLSGFHRSPYA [DTrp(6Br)1-bovine GPR7L(29)]
Second: WYKHVASPRYHTVGRAAGLLMGL [Trp1-human GPR8L(23)]
The IC50 of the first is 15-fold higher: 6.1 nM for the first, 0.4 nM for the second. The second is the more potent here.

[Trp(6-Br)]YKPAAGHSSYSVGRAAGLLSGLRRSPYA [LTrp(6Br)1-human GPR7L(29)] and WYKPAAGSHHYSVGRAAGLLSSFH [Trp1-rat GPR7L(24)] are within 1.5-fold of each other in IC50: 0.32 nM for the first, 0.3 nM for the second.

Compared with WYKPAAGHSSYSVGRAAGLLSGLRRSPYA [Trp1-human GPR7L(29)], B1 is 39-fold higher in IC50: 0.33 nM for the first, 13 nM for the second.

WYKPAAGSHHYSVGRAAGLLSSFHRFPST [Trp1-rat GPR7L(29)] and [Trp(6-Br)]YKPTAGQGYYSVGRAAGLLSGFHRSPYA [LTrp(6Br)1-bovine GPR7L(29)] are the same in IC50: 0.34 nM for the first, 0.34 nM for the second.

Molecular target: T2, GPR7
Assay: Test on binding inhibition of various peptides against human GPR7-expressed CHO cell membrane fraction
Parameters: The synthetic primers were constructed so as to amplify the gene in the region to be translated to its receptor protein; expressed in transfected cells; host or cells: CHO cells, membrane fraction
Conditions: iodine-labeled hGPR7L-23; human GPR7-expressed CHO cell membrane fraction 1 μg/well; room temperature 1.5 hour
Method: A mixture of 20 μl of hGPR7L-23 (SEQ ID NO:1) (0.1 mM or 1 mM), 20 μl of lactoperoxidase (Sigma; prepared using 10 μg/ml and 0.1M HEPES-NaOH pH7.0), 20 μl of Idoine-125 (manufactured by Amersham, MS-30, 74 MBq), 20 μl of 0.005% hydrogen peroxide (manufactured by Wako Pure Chemical Industries, Ltd.) was allowed to stand at room temperature for 20 to 30 minutes. Then, 600 μl of 0.1% TFA was added to the mixture. The mixture was applied to reverse phase HPLC for separation and the peaks of the two'labeled products were fractionated in a tube charged with 1 mL of DMSO. Immediately, the fraction was stored on ice and an aliquot was provided for measurement of the radioactivity with a γ-counter. The remaining preparation was dispensed and stored at −30° C.
Human GPR7-expressed CHO cells were cultured in a flask. The flask was washed with 5 mM EDTA/PBS to strip the cells off. The cells were stripped off with 5 mM EDTA/PBS and centrifuged for recovery. The recovered cells were suspended in 25 mL of a buffer for preparing membrane fraction (50 mM Tris-HCl, pH7.5, 5 mM EDTA, 0.1% bovine serum albumin (manufactured by Sigma), 0.5 mM PMSF (manufactured by Wako Pure Chemical Industries, Ltd.), 20 μg/mL leupeptin (manufactured by Peptide Research Institute), 0.1 μg/mL pepstatin A (manufactured by Peptide Research Institute) and 4 μg/mL E-64 (manufactured by Peptide Research Institute)), followed by homogenization on ice using a polytron (12,000 rpm, 15 seconds×3 times). The homogenate was centrifuged at 4° C. under 1,000 g for 10 minutes with a high speed cooling centrifuge to recover the supernatant. […] The pellets were recovered and suspended in a small quantity of the buffer for preparing membrane fractions. […]
Using the assay buffer, the human GPR7-expressed CHO cell membrane fraction was diluted in a final concentration of 1 μg/well and iodine-labeled hGPR7L-23 (SEQ ID NO:1) was diluted in a final concentration of […]. […] After 50 μl of a liquid scintillator was dispensed thereto, the radioactivity was counted on a Top Count (Packard) and the data was analyzed in triplet (FIG. 33). […]

CC(C)C[C@H](NC(=O)CNC(=O)[C@H](C)NC(=O)[C@H](C)NC(=O)[C@H](CCCNC(=N)N)NC(=O)CNC(=O)[C@@H](NC(=O)[C@H](CO)NC(=O)[C@H](Cc1ccc(O)cc1)NC(=O)[C@H](Cc1ccc(O)cc1)NC(=O)CNC(=O)[C@H](CCC(N)=O)NC(=O)CNC(=O)[C@H](C)NC(=O)[C@@H](NC(=O)[C@@H]1CCCN1C(=O)[C@H](CCCCN)NC(=O)[C@H](Cc1ccc(O)cc1)NC(=O)[C@@H](N)Cc1c[nH]c2cc(Br)ccc12)[C@@H](C)O)C(C)C)C(=O)N[C@@H](CC(C)C)C(=O)N[C@@H](CO)C(=O)NCC(=O)N[C@@H](Cc1ccccc1)C(=O)N[C@@H](Cc1c[nH]cn1)C(=O)N[C@@H](CCCNC(=N)N)C(=O)N[C@@H](CO)C(=O)N1CCC[C@H]1C(=O)N[C@@H](Cc1ccc(O)cc1)C(=O)N[C@@H](C)C(=O)O [LTrp(6Br)1-bovine GPR7L(29)] (H-[Trp(6-Br)]YKPTAGQGYYSVGRAAGLLSGFHRSPYA-OH; N-terminus and C-terminus assumed) and “WYKPAAGSHHYSVGRAAGLLSSFHRFPST [Trp1-rat GPR7L(29)]” are the same in IC50: 0.34 nM for the first, 0.34 nM for the second.

Molecular target: T2, GPR7
Assay: Intracellular cAMP production suppression activity on human GPR7-expressed CHO cells
Format: cell-based
Parameters: The synthetic primers were constructed so as to amplify the gene in the region to be translated to its receptor protein; expressed in transfected cells; host or cells: CHO cells, membrane fraction
Conditions: forskolin-promoted cAMP production; receptor-expressed CHO cells; read-out: IC50 (nM) human GPR7, cAMP production inhibition
Method: as §1

First: CC(C)C[C@H](NC(=O)CNC(=O)[C@H](C)NC(=O)[C@H](C)NC(=O)[C@H](CCCNC(=N)N)NC(=O)CNC(=O)[C@@H](NC(=O)[C@H](CO)NC(=O)[C@H](Cc1ccc(O)cc1)NC(=O)[C@H](Cc1ccc(O)cc1)NC(=O)CNC(=O)[C@H](CCC(N)=O)NC(=O)CNC(=O)[C@H](C)NC(=O)[C@@H](NC(=O)[C@@H]1CCCN1C(=O)[C@H](CCCCN)NC(=O)[C@H](Cc1ccc(O)cc1)NC(=O)[C@@H](N)Cc1c[nH]c2cc(Br)ccc12)[C@@H](C)O)C(C)C)C(=O)N[C@@H](CC(C)C)C(=O)N[C@@H](CO)C(=O)NCC(=O)N[C@@H](Cc1ccccc1)C(=O)N[C@@H](Cc1c[nH]cn1)C(=O)N[C@@H](CCCNC(=N)N)C(=O)N[C@@H](CO)C(=O)N1CCC[C@H]1C(=O)N[C@@H](Cc1ccc(O)cc1)C(=O)N[C@@H](C)C(=O)O [LTrp(6Br)1-bovine GPR7L(29)] (H-[Trp(6-Br)]YKPTAGQGYYSVGRAAGLLSGFHRSPYA-OH; N-terminus and C-terminus assumed)
Second: WYKPAAGSHHYSVGRAAGLLSSFH [Trp1-rat GPR7L(24)]
The IC50 of the first is 1.9-fold higher: 0.58 nM for the first, 0.31 nM for the second.
